Data on 2 molecules can be found in publication PMC3777412 (Nature communications, 2013).

This experiment concerns the target Grb2, histidine-tagged, purified (UniProt P62993 1-217). Description: SPR.

Where no end group is shown, it is not given here. [ ]: non-standard residue; d: D form. The star is where a group is joined. Biotin = O=C1N[C@H]2[C@H](CS[C@H]2CCCCC(=O)*)N1; pY = N[C@@H](Cc1ccc(OP(=O)(O)O)cc1)C(=O)O

Grb2, histidine-tagged, purified, sequence (P62993 whole entry): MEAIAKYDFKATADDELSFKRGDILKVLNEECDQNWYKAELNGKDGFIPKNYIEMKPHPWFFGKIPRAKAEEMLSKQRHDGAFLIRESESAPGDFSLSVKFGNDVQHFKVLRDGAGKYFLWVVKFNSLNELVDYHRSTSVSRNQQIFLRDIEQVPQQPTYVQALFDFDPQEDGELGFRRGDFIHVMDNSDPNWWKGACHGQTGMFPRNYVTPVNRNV

Molecule Biotin-ASASAKGHE[pY]TNIKYS [pY542 peptide] displayed a Kd of 118 ± 10.3 nM. In turn, Biotin-ASASASARV[pY]ENVGLM [pY580 peptide] returned a Kd of 68.5 ± 8.7 nM.
